Earlier results on one substance are cited in article PMC11988805.

In data set [1] the target is stapled BH3 peptide BH3 (Homo sapiens) (UniProt P55957).
Data set [2] concerns the target unstapled BH3 peptide BH3 (Homo sapiens) (UniProt P55957).

For the substance Bcl-2 (from UniProt P10415), the Kd (usually the free concentration of one partner at which half of the binding sites on the other are occupied at equilibrium, for simple one-to-one binding) in data set [1] was 38.8 nM; in data set [2], 269 nM.
